Assay results as given in paper PMC12650144 (2025).

B1: α1s II–III loop C region peptide (residues 720–765) [not stated] / DHPR β1a subunit, full length [mouse] (parent complex)
chain 1: LKVDEFESNVNEVKDPYPSADFPGDDEEDEPEIPVSPRPRPLAELQ
chain 2: not shown

Variants of: B1
Experiment: intrinsic fluorescence binding (fluorescence quenching at 340 nm); read at the last titration point, 9 µM peptide; parent: 0.66; read off a plot

| response | Variant |
| --- | --- |
| ~0.93 | chain 1 P16A, chain 1 P18A, chain 1 P23A, chain 1 P31A, chain 1 P34A, chain 1 P37A, chain 1 P39A, chain 1 P41A |
